Blank lines part the entries; values can stand above or below the binder they belong to.
Columns and labels:
[1] = biological target: T1, human desmoglein 3 (DSG3) (human, UniProt P32926 50-999); assay: flow cytometry, FITC anti-mouse IgG secondary antibody
T1 construct: Full-length DSG3 gene stably expressed on CHO DG44 cells (DSG3-DG44) for flow cytometry; also called DSG3-DG44 cells; DSG3-Ba/F3 cells
T1 sequence: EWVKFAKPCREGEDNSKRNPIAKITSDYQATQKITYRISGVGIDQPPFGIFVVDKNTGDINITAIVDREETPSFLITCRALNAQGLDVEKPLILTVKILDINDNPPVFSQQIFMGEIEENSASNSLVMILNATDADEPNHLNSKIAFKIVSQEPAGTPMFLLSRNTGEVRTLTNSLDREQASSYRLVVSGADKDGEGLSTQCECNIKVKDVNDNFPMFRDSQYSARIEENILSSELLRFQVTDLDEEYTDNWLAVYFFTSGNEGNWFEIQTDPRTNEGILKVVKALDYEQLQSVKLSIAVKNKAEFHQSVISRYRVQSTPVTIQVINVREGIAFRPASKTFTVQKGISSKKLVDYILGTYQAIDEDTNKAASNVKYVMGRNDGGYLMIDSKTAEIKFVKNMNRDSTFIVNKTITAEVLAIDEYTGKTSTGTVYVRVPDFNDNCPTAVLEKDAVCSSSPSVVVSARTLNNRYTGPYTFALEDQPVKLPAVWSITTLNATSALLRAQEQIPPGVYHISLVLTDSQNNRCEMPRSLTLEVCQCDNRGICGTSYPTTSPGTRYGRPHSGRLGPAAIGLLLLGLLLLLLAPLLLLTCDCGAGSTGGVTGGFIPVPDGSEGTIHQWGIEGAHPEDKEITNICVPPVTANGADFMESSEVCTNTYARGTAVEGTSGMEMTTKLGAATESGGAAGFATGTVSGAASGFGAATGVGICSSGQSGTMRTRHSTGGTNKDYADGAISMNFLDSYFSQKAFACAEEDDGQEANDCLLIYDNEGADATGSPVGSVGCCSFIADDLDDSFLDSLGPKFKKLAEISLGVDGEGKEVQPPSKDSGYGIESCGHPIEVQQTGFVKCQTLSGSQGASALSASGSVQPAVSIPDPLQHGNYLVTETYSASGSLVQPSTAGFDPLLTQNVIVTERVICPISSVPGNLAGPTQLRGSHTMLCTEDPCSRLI
Procedure: (§1) Binding of the DF366c antibody to DSG3-DG44 cells and DG44 cells was detected by flow cytometry. 3×10⁴ cells were reacted with 10 μg/mL of DF366c antibody on ice for one hour, and then washed. Then, this was reacted with an FITC-labeled anti-human IgG antibody (Beckman Coulter) as the secondary antibody on ice for one hour, washed, and then subjected to flow cytometry. FACS Calibur (Becton Dickinson) was used as the flow cytometer. DF366c antibody bound to DSG3-DG44 cells, but not to the parental DG44 cells. Therefore, the DF366c antibody was confirmed to bind specifically to DSG3.
The pMCD/G2a-DF366 and pMCN/k-DF366 plasmids were introduced into DG44 cells by electroporation. The CHO DF366m-DG44 cells, which stably express the mouse IgG2a chimeric DF366 antibody (DF366m) were established by selection in a nucleic acid (HT supplement)-free medium containing 500 μg/mL of Geneticin. Subsequently, the DF366m antibody was purified from the culture supernatant of DF366m-DG44 using a Hi Trap Protein G HP column. The solvent was substituted with PBS using a PD-10 column. The concentration of the DF366m antibody purified was quantified using a DC Protein Assay kit. The DF366m antibody was subjected to flow cytometric analysis to confirm that the antibody specifically binds to DSG3 in the same way as the DF366c antibody. […]

[2] = biological target: T1, human desmoglein 3 (DSG3); assay: flow cytometry, 10 µg/mL antibody on DSG3-DG44 CHO cells
Procedure: as §1

[3] = biological target: T1, human desmoglein 3 (DSG3); assay: flow cytometry screening on DSG3-DG44 cells
Procedure: Binding of the DF366 antibody to DSG3-DG44 cells was detected by flow cytometry. 5×10⁴ cells of DSG3-DG44 was reacted with 3 μg/mL of DF366 antibody on ice for 30 minutes, and then washed. Then, this was reacted with an FITC-labeled anti-mouse IgG antibody (Beckman Coulter) as the secondary antibody on ice for 30 minutes, washed, and then subjected to flow cytometry. FACS Calibur (Becton Dickinson) was used as the flow cytometer. The DF366 antibody bound to DSG3-DG44 cells, but not to the parental DG44 cells. Therefore, the DF366 antibody was confirmed to bind specifically to DSG3.

binding result [1]: binds
B1: mouse IgG2a chimeric DF366 antibody (DF366m) (antibody)
heavy: EVQLQQSGPELVKPGASVKISCKASGYTFTDYNMDWVKQSHGESLEWIGYIYPNNGGSGYNQKFKSKATLTVDKSSSTAYMELHSLTSEDSAVYYCARRDSYYGFDMAWFAYWGQGTLVTVSAAKTTAPSVYPLAPVCGDTTGSSVTLGCLVKGYFPEPVTLTWNSGSLSSGVHTFPAVLQSDLYTLSSSVTVTSSTWPSQSITCNVAHPASSTKVDKKIEPRGPTIKPCPPCKCPAPNLLGGPSVFIFPPKIKDVLMISLSPIVTCVVVDVSEDDPDVQISWFVNNVEVHTAQTQTHREDYNSTLRVVSALPIQHQDWMSGKEFKCKVNNKDLPAPIERTISKPKGSVRAPQVYVLPPPEEEMTKKQVTLTCMVTDFMPEDIYVEWTNNGKTELNYKNTEPVLDSDGSYFMYSKLRVEKKNWVERNSYSCSVVHEGLHNHHTTKSFSRTPGK
light: DIQMTQSPASLSASVGETVTITCRPSENIYNNLAWYQQKQGKSPQLLVYVATNLAEGVPSRFSGSGSGTRFSLKINSLQPEDFGKYYCQHSYGTPWTFGGGTKLEIKRADAAPTVSIFPPSSEQLTSGGASVVCFLNNFYPKDINVKWKIDGSERQNGVLNSWTDQDSKDSTYSMSSTLTLTKDEYERHNSYTCEATHKTSTSPIVKSFNRNEC
notes: DF366 variable regions on mouse IgG2a/kappa constant regions, made in CHO DG44 cells; The full-length entries may include a signal peptide; also called DF366m antibody

binding result [2]: binds
B2: human IgG1 chimeric DF366 antibody (DF366c) (antibody)
heavy: not shown
light: DIQMTQSPASLSASVGETVTITCRPSENIYNNLAWYQQKQGKSPQLLVYVATNLAEGVPSRFSGSGSGTRFSLKINSLQPEDFGKYYCQHSYGTPWTFGGGTKLEIKRTVAAPSVFIFPPSDEQLKSGTASVVCLLNNFYPREAKVQWKVDNALQSGNSQESVTEQDSKDSTYSLSSTLTLSKADYEKHKVYACEVTHQGLSSPVTKSFNRGEC
notes: Mouse DF366 variable regions on human IgG1/kappa constant regions, made in CHO DG44 cells; The full-length entries may include a signal peptide; also called DF366c antibody

binding result [3]: binds
B3: DF366 antibody (antibody, V domains shown)
VH: EVQLQQSGPELVKPGASVKISCKASGYTFTDYNMDWVKQSHGESLEWIGYIYPNNGGSGYNQKFKSKATLTVDKSSSTAYMELHSLTSEDSAVYYCARRDSYYGFDMAWFAYWGQGTLVTVSA
VL: DIQMTQSPASLSASVGETVTITCRPSENIYNNLAWYQQKQGKSPQLLVYVATNLAEGVPSRFSGSGSGTRFSLKINSLQPEDFGKYYCQHSYGTPWTFGGGTKLEIK
notes: Mouse monoclonal antibody purified from hybridoma supernatant; also called anti-DSG3 antibody; anti-human desmoglein 3 antibody

Source: US20100035280A1 (Chugai, published 2010)
